{"source": "patent US20030152568A1", "molecular_target": "FGF receptor-3c on human osteosarcoma cell line (ATCC, CRL 1543) (human) (UniProt P22607)", "sequence (P22607 23-806)": "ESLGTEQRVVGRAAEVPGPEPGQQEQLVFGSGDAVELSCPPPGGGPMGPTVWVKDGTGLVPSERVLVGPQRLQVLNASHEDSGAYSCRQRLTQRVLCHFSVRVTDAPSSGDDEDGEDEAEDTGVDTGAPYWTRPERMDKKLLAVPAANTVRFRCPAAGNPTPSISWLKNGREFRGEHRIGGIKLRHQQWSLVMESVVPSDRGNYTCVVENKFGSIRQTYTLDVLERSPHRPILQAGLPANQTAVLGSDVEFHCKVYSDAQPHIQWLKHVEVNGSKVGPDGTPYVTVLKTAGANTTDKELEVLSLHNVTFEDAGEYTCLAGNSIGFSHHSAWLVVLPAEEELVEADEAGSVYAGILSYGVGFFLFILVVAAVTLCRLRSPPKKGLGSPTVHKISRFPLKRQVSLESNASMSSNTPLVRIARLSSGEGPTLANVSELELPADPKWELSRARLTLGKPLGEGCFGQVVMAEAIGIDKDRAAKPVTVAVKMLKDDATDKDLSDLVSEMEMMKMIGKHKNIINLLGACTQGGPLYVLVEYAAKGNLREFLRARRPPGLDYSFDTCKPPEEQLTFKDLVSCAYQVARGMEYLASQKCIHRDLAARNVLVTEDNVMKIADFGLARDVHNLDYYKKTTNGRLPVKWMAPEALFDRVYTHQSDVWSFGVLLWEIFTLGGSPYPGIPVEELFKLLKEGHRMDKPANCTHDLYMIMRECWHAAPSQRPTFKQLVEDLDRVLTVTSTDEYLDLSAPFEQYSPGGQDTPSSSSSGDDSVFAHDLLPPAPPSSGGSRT", "experiment": "cell-based or functional assay", "data": [{"substance": "FGF-18-saporin conjugate", "values": [{"measurement": "LD50 (sensitivity of cell lines to the FGF-18-saporin conjugate)", "value": "< 1", "unit": "nM"}]}]}
